koff data for 1 molecule are collected here from PMC8960791 (2022).

In this assay the target is soluble HLA-E-VL9, HLA-E*01:03 heavy chain refolded with β2-microglobulin and synthetic VL9 peptide (human | ). The assay can be described thus: SPR. A general note: In SPR one partner is held on a chip, and binding of the other changes the refractive index at the surface.

B1: 3H4 IgG, recombinant 3H4 in a human IgG1 backbone (antibody, V domains shown)
VH: EVQLQESGPELVKPGASVKIPCKASGYTFTDYNMDWVKQSHGKSLEWIGDINPNNGGTIYNQKFKGKATLTVDKSSSTAYMELRSLTSEDTAVYYCARPDYYGSSYGWYFDVWGTGTTVTVSS
VL: DIVITQSPSSMYASLGERVTITCKASQDINSYLSWFQQKPGKSPKTLIYRANRLVDGVPSRFSGSGSGQDYSLTISSLEYEDMGIYYCLQYDEFPLTFGAGTKLELK
With B1, the koff – broadly, the first-order rate constant of dissociation – was found to be 0.51 s⁻¹.
